The chains are these.
B1: GST-fused full length ARL-13 (FL) (natural protein, C. elegans, UniProt H2L0N8-2 1-367, looked up)
chain: MTEKSWFETIFCCCCHRTPIIRREIKLGCFGIGSAGKTTFLKVLKGEDPRDLLRTNGFSTVKMEYDETFHLTIYDVGGDKGIRGIWSNYYAEVHGIIYVIDYSTDETFTESIEALHSLTSNPHVQKKPIFLLLNNQNNREFDDVEISNETKIQAGQHKIVLFSHFNKYNGYLDNIKSATLTVMARAKKDRNEYQEQFVRFIDSISEHYVELSEGVKTAELALRIRQEEAKEQRRLMQMKVEHDALKADVAGLELRNQPPVQPPIPPDPPSDPKSASVHIEESPPMSLASSTIPSDIIQSTPETGTPRDPVKISQTSTKPVSPESNSVKEEPTIILKDNYFLPPKAPGRQYSRIQRIQNVLNNRVVPK
B2: His-tagged ARL-3 (natural protein, C. elegans, UniProt O45379 1-184, looked up)
chain: MGLIDVLKSFKSPSGREIRILLLGLDNAGKTTILKQLSSEDVQHVTPTKGFNVKTVAAMGDIRLNVWDIGGQRSIRPYWSNYYENIDTLIFVIDSNDKKRFDEMNIELGELLDEEKLRKVPVLIFANKQDLVTAASSEEITRKLNLDLLRDRTWHIQACSALKNEGINDGITWVASNLKPASKK
notes: ARL-3, small GTPase of C. elegans, wild type; the methods speak of full-length and/or truncated cDNAs, and no truncation of ARL-3 is named; also called His-ARL-3; source: E. coli BL21, purified (His resin); not shown: His, N-terminal, kept
B3: ARL-3 dominant negative (DN, T31N) variant, recombinant (natural protein, C. elegans, UniProt O45379 1-184, looked up)
chain: B2 chain with T31N
notes: ARL-3, C. elegans, dominant negative variant T31N; also called ARL-3 DN; ARL-3DN (T31N); source: E. coli BL21, purified (His resin or glutathione sepharose)
B4: ARL-3 dominant active (DA, Q72L) variant, recombinant (natural protein, C. elegans, UniProt O45379 1-184, looked up)
chain: B2 chain with Q72L
notes: ARL-3, C. elegans, dominant active variant Q72L; also called ARL-3 DA; source: E. coli BL21, purified (His resin or glutathione sepharose)

The assay “His-tagged ARL-3” deals with B2. Description: cell-based or functional assay.
Assay [1] addresses T1, UNC-119, recombinant, as used in the GST pull-downs with ARL-3 and its variants (C. elegans, UniProt Q10658 1-219).
T1 construct: if it carried the His tag it is the same construct as m6 and ARL-3 was GST-fused; source: E. coli BL21, purified (His resin or glutathione sepharose)
Nature of the assay: pull-down; GST pull-down: His-tagged protein incubated with GST-tagged protein immobilised on glutathione sepharose; 25 mM Tris-HCl pH 7.4, 150 mM NaCl, 0.5% Triton X-100, 1 mM DTT, 10% glycerol, 4 hours at 4 °C; six washes; anti-His immunoblot. The following applies: both partners purified. For orientation: Immunoblotting shows a protein as a band on a membrane.

Changes are numbered by the printed parent chain. Names and notes keep the numbering of the source.

T1 sequence (Q10658 whole entry, change not shown, the tested form may be a part): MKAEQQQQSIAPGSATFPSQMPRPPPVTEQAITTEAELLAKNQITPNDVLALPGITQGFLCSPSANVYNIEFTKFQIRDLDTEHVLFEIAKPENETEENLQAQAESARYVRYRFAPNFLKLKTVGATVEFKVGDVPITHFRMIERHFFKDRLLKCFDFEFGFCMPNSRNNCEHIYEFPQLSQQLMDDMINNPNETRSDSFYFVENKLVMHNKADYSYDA

As for B1, in the assay with His-tagged ARL-3, the “mantGDP release from GDP-preloaded ARL-3 (in vitro GEF assay), ARL-13 from one-tenth molar (~2 fold) to a 1:1 molar ratio” value was roughly 7 fold.

As for B2, in assay [1], the binding result is “binds”.

In the case of B3, the binding result in assay [1] was “binds”.

Regarding B4, the binding result in assay [1] is given as “binds”.

Source of the values: PMC4840320 (Scientific Reports, 2016).
